Results reported in the supplement of paper PMC10567573.

B1: SMG5 (parent)
chain: TNPDLIIVCAQSSQSLWNRLSVLL
B2: FEM1B (parent)
chain: TLAALLLNRSESDIRYLLGYVSQQ

Variants of: B1
Test: protein stability index of a GFP-peptide fusion (GPS, HEK-293T) (PSI 1-6); higher = more stable
Conditions: c terminus: a fixed tail appended
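Also: lentivirally expressed fusions sorted by FACS into six bins by GFP to DsRed ratio, PSI derived from sequencing read proportions per bin multiplied by bin number.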

Protein stability index, by site and new letter:
W17: A 4.21, F 3.58, C 4.36, T 2.58, K 2.05, E 3, P 2.82
L23: P 3.47, G 3.55, V 2.8, R 2.83
S15: A 2.62, D 2.19, G 2.9, R 1.25, Y 2.49, H 2.18, C 3.21, M 3.28, L 2.45, I 4.01
L5: K 2.82, P 2.94, C 3.93, Q 1.73, V 2.51, W 1.4, A 2.09, M 2.01
Q14: T 3.58, D 3.38, N 2.81, G 2.23, K 3.23, R 2.73, S 2.68, L 1.6, V 3.03, M 2.22
S13: R 1.36, N 2.7, E 1.57, H 1.53, A 1.16, K 2.48, D 1.59, Q 1.83, C 2.21, T 3.23, V 1.88
R19: T 3.21, N 5.11, W 2.23, K 2.5, A 1.74, F 1.84, E 3.19, V 1.86, H 2.54
C9: T 1.95, D 2.29, V 2.69, F 2.64, R 2.12, S 3.03, W 3.33, K 1.98, A 2.28, L 3.72, H 1.64
I6: R 2.2, K 2.36, E 2.34, Q 3.05, G 2.65, M 1.93, C 1.26
S12: F 3.37, H 3.49, K 1.89, R 3.06, Y 4.01, I 3.02, E 2.22, P 1.33
N18: C 2.27, Q 2.4, W 1.92, D 2.97, L 5.57, H 2.56
Q11: Y 4.08, N 2, F 1.67, R 2.19, V 3.29, C 3.76, M 2.81
L20: A 2.15, T 2.02, D 1.83, E 3.06, I 2.41, N 3.27, W 3.72, V 1.7, S 2.19, C 2.88
P3: Q 1.71, M 2.64, T 2.8, W 3.4, N 2.52, I 4.44, R 3.61, K 2.48, G 3.64
S21: I 3.08, M 1.58, P 2.6, Q 2.87, E 3.57, W 2.75, A 3.16, L 2.07, K 2.19
L24: M 3.19, F 2.86, V 3.05, Y 1.85, E 3.27, D 2.8, G 2.84, A 2.73, T 2.64, N 2.45
N2: D 3.01, W 3.06, V 2.06, P 3.06, M 2.18
D4: Q 2.18, M 4.85, V 1.67, I 2.79, P 1.95, C 1.05, R 1.94
A10: S 2.94, R 1.8, F 3.77, Y 3.09, G 1.98, D 2.01
T1: Q 3.39, N 3.25, I 3.34, W 2.35, F 2.28, D 1.57, A 1.38, K 4.48, V 2.84
V8: R 2.22, W 2.69, S 1.7, M 1.46, A 1.43, G 2.27
I7: R 2.02, Q 1.6, C 2.48, M 1.67, W 4.05, P 2.41, Y 1.65, T 1.66, F 1.45
V22: Y 1.91, N 1.58, L 3.21, D 2.03, I 4.58, H 1.84, T 2.99, G 1.81, C 3.03
L16: C 2.91, F 3.11, V 1.51, N 2.81, W 1.93, Y 2.81, A 2.1

Variants of: B2
Test: as above
Conditions: c terminus: a fixed tail appended

Protein stability index of substitutions, site by site:
Q24: P 2.31, V 1.75, S 2.18, Y 2.22, T 3.19, A 2.5, W 2.52, C 3.34, D 2, N 2.6, E 2.39, G 2.68, I 3.41, H 2.75, M 1.61, K 4.32, F 2.26
Y20: Q 3, A 2.91, I 3.01, N 4.26, G 2.25, E 4.31, W 2.52, F 1.29, T 1.97, M 4.22, C 3.38, H 2.13, R 3.14, V 3.32, D 3.08, P 2.58, L 2.66, K 2.46
S22: D 2.48, T 2.5, P 2.53, N 1.56, I 2.42, L 3.22, Q 3.56, A 3.04, C 2.87, G 2.98, R 2.37, H 2.55, Y 2.7, K 2.77, V 2.25, F 2.73, W 3.27
L17: H 1.26, P 1.51, V 2.98, W 2.67, M 3.53, E 3.04, G 2.01, S 1.92, F 2.82, N 2.24, D 1.65, T 2.9, I 1.99, Q 3.77, R 2.04, K 1.1
Q23: S 2.92, D 2.67, Y 2.1, F 2.3, V 2.77, T 3.07, I 2.75, L 1.09, G 2.58, K 2.87, A 2.35, N 1.93, C 3.58, H 2.27, R 2.6, M 3.68, E 3.21, P 1.36
G19: L 2.87, S 2.71, I 3.01, Q 2.11, H 2.78, A 2.38, D 2.62, V 3.02, K 3.24, M 2.35, W 1.26, E 2.37, F 3.44, P 2.76, Y 3.17, T 2.4, C 3.34, R 3.51
V21: F 2.23, C 3.21, M 2.17, L 3.44, S 3.12, K 1.97, A 3.97, Q 1.53, Y 2.32, D 2.86, I 2.41, P 2.42, E 2.03, W 3.68, R 1.3, T 1.82, N 3.55, G 1.62
L18: P 2.69, D 1.64, W 3.01, S 3.62, Y 3.1, E 1.78, A 1.98, M 1.94, K 3.43, H 2.17, V 1.67, R 3.15, C 2.45, I 2.8, T 3.06, F 2.34, N 1.73, Q 3.66
